Sequences and labels used below:
B1: p67^phox(1–212) [not stated] / Nox2 peptide 24 (357–371), dithiol form [modified: biotin on the N-terminus; C-terminal amide; cysteines 369 and 371 in the dithiol form; biotin on the N-terminus; C-terminal … (parent)
chain 1: MSLVEAISLWNEGVLAADKKDWKGALDAFSAVQDPHSRICFNIGCMYTILKNMTEAEKAFTRSINRDKHLAVAYFQRGMLYYQTEKYDLAIKDLKEALIQLRGNQLIDYKILGLQFKLFACEVLYNIAFMYAKKEEWKKAEEQLALATSMKSEPRHSKIDKAMECVWKQKLYEPVVIPVGKLFRPNERQVAQLAKKDYLGKATVVASVVDQD
chain 2: SGSGIVGDWTEGLFNACGC

In this assay the parent is B1. The assay is described as follows: peptide-protein binding assay (surface-attached biotinylated peptide, protein in solution, kinetic TMB oxidation read-out). Particulars: with Nox2 peptide 24 (357–371), 10 min kinetic experiment, read off a plot.
On to chain 1 C40S C45S C121S C165S, for which the response (Absorbance (650 nm) x 1000/min) was 10.

The values above are taken from PMC4316792, “The dehydrogenase region of the NADPH oxidase component Nox2 acts as a protein disulfide isomerase (PDI) resembling PDIA3 with a role in the binding of the activator protein p67^phox” (Frontiers in Chemistry, 2015).
